This note sets out measurements from patent US20090286252A1 (NEW YORK UNIVERSITY, published 2009).

Test [1] concerns the target full length cTRα (chicken) (UniProt P04625). Kind of test: cell-based or functional assay.
For a further test, the target named is T1, LexA-hRARα LBD (human, UniProt P0A7C2 1-202; P10276 154-462, limits assumed).
T1 construct: also called LexA-RAR
T1 sequence (looked up): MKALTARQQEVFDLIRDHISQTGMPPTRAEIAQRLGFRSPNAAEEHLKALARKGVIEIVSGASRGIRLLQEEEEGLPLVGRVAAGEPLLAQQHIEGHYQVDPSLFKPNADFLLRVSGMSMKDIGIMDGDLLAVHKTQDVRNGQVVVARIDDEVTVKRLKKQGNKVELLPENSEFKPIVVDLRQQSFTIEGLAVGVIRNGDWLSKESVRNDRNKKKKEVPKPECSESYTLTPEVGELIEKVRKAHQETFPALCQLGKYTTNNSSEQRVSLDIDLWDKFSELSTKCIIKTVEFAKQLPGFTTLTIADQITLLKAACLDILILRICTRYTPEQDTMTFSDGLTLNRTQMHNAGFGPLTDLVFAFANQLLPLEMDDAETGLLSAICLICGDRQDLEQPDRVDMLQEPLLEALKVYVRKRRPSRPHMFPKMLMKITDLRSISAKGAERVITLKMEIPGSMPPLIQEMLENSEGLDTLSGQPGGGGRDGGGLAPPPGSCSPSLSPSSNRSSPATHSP
Kind of test: yeast two-hybrid (data not shown). The protocol:
(§1) The following receptor baits were used: LexA-cTRα LBD, LexA-hTRβ LBD, LexA-hRARα LBD, LexA-hRXRα LBD, and LexA-hGR LBD. […] Yeast cells harboring appropriate plasmids were grown in selective media with Gal/Raf in the presence or absence of cognate ligand (1 μM T3 for TR, all trans or 9-cis RA for RAR, 9-cis RA for RXR, and 10 μM deoxycorticosterone for GR) overnight before β-galactosidase activity was assayed using o-Nitrophenyl β-D-Galactopyranoside as the substrate. β-galactosidase units are expressed as (O.D. 420 nm×1000)/(minutes of incubation×O.D. 600 nm of yeast suspension).

In a further test the target is T2, LexA-hGR LBD (human, UniProt P0A7C2 1-202; P04150 485-777, limits assumed).
T2 construct: also called LexA-GR
T2 sequence (looked up): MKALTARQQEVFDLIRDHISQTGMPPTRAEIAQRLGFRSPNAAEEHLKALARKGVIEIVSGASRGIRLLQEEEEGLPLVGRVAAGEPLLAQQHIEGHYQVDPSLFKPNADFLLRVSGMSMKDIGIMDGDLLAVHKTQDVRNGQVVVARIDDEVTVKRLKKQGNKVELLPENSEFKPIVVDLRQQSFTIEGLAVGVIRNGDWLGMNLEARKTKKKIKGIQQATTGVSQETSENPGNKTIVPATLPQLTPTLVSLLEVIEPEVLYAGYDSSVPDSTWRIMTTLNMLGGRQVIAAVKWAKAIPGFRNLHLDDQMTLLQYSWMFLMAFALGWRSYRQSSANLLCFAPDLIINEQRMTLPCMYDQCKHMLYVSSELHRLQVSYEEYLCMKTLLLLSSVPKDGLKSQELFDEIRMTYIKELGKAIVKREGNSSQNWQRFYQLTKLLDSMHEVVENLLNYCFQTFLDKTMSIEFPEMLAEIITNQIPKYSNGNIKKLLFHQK
Kind of test: yeast two-hybrid (data not shown). The method, then:
as §1

Another test addresses T3, LexA-hRXRα LBD (human, UniProt P0A7C2 1-202; P19793 198-462, limits assumed).
T3 construct: also called LexA-RXR
T3 sequence (looked up): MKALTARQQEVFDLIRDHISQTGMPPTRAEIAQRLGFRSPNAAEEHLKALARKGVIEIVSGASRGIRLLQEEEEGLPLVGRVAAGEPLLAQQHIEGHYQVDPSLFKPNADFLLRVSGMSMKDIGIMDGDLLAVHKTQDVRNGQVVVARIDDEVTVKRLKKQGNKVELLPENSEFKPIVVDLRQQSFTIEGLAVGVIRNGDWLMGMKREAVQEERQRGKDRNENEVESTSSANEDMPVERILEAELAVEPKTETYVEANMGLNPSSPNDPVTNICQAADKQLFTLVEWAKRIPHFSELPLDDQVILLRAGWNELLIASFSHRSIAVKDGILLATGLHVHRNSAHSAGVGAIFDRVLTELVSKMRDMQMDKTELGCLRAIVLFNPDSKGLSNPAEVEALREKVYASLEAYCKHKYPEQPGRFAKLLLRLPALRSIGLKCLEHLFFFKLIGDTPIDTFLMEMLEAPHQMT
Nature of the test: yeast two-hybrid, β-galactosidase (FIG. 8B). The protocol: as §1

In another test the target is T4, LexA-cTRα LBD (chicken, UniProt P0A7C2 1-202; P04625 120-408, limits assumed).
T4 construct: also called LexA-TR LBD; LexA-TR
T4 sequence (looked up): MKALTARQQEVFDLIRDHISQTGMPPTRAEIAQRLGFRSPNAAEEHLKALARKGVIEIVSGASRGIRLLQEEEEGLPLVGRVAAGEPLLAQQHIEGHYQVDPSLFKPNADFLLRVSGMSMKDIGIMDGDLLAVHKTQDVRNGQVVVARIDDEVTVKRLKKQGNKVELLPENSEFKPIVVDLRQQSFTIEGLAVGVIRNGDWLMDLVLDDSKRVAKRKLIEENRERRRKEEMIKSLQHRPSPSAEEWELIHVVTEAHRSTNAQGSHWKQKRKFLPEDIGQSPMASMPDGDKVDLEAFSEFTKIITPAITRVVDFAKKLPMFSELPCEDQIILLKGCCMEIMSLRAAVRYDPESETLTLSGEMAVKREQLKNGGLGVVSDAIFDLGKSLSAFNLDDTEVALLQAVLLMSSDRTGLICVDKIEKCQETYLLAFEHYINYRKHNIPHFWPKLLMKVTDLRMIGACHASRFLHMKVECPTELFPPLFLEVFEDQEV
Kind of test: yeast two-hybrid, β-galactosidase (FIG. 8B). The protocol:
as §1

Another test addresses T5, B42-hRXRα LBD (human, UniProt P19793 198-462).
T5 construct: also called B42-RXR LBD; LBD of RXR (fused with B-42)
T5 sequence (looked up): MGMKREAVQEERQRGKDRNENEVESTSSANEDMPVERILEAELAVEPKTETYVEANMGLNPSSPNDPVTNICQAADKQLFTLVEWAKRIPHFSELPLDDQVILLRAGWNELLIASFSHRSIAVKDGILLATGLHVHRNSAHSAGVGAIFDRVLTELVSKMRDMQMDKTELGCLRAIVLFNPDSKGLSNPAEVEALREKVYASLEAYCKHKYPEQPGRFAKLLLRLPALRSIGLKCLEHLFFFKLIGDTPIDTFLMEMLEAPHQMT
Nature of the test: yeast two-hybrid (data not shown). The protocol:
as §1

The target of a further test is T6, B42-hRARα LBD (human, UniProt P10276 154-462).
T6 construct: also called B42-RAR LBD; LBD of RAR
T6 sequence (looked up): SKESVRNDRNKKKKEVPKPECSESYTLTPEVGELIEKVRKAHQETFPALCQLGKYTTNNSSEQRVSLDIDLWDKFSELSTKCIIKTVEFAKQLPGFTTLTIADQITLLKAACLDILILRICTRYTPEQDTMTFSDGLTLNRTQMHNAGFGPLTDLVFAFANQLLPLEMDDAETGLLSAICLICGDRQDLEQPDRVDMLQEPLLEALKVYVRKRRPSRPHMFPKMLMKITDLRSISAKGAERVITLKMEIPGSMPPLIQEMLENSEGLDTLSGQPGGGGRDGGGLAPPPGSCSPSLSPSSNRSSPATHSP
Nature of the test: yeast two-hybrid (data not shown). The protocol:
as §1

A further test concerns the target T7, B42-cTRα LBD (chicken, UniProt P04625 120-408).
T7 construct: also called B42-TR LBD; LBD of TR (fused with B-42)
T7 sequence (looked up): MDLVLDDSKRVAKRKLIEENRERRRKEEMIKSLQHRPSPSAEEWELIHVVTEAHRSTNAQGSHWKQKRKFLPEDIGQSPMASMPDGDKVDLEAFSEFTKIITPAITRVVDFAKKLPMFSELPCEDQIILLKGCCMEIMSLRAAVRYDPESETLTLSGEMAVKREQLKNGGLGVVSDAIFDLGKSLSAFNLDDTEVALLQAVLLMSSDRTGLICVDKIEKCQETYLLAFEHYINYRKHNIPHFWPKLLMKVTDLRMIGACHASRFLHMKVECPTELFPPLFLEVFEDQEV
Nature of the test: yeast two-hybrid (data not shown). The protocol:
as §1

For the molecule “NRIF3 (full length) (from UniProt Q13352 1-177)”, in test [1], the enhancement of TR-mediated activation of the GH-TRE-tk-CAT reporter in HeLa cells (FIG. 5B) came to 3.5 fold and the enhancement of TR-mediated activation of the IR-ΔMTV-CAT reporter in HeLa cells (FIG. 5A) is 2.5 to 3 fold.

B1: β3-endonexin short form (EnS) expressed from pJG4-5 (other, not shown: large carriers)
chain: MPVKRSLKLDGLLEENSFDPSKITRKKSVITYSPTTGTCQMSLFASPTSSEEQKHRNGLSNEKRKKLNHPSLTESKESTTKDNDEFMMLLSKVEKLSEEIMEIMQNLSSIQ
notes: Yeast two-hybrid prey; also called pJG4-5/EnS
For B1, the binding result with LexA-hRARα LBD, with LexA-hGR LBD, with LexA-hRXRα LBD and in the test with LexA-cTRα LBD was “no binding” each time.

B2: LexA alone (other, UniProt P0A7C2 1-202, looked up)
chain: MKALTARQQEVFDLIRDHISQTGMPPTRAEIAQRLGFRSPNAAEEHLKALARKGVIEIVSGASRGIRLLQEEEEGLPLVGRVAAGEPLLAQQHIEGHYQVDPSLFKPNADFLLRVSGMSMKDIGIMDGDLLAVHKTQDVRNGQVVVARIDDEVTVKRLKKQGNKVELLPENSEFKPIVVDLRQQSFTIEGLAVGVIRNGDWL
notes: Negative control bait; also called bait LexA alone (negative control)
Take B2: the binding result with B42-hRXRα LBD, with B42-hRARα LBD and with B42-cTRα LBD was “no binding” throughout.
